In the RNAGym collection of RNA variant scans (doi:10.1093/molbev/msab373):

B1: Azoarcus group I ribozyme (parent)
chain: GUGCCUUGCGCCGGGAAACCACGCAAGGGAUGGUGUCAAAUUCGGCGAAACCUAAGCGCCCGCCCGGGCGUAUGGCAACGCCGAGCCAAGCUUCGGCGCCUGCGCCGAUGAAGGUGUAGAGACUAGACGGCACCCACCUAAGGCAAACGCUAUGGUGAAGGCAUAGUCCAGGGAGUGGCGAAAGUCACACAAACCGG

Variants of: B1
Assay: reverse-splicing fitness (ratio to wild type); higher = more active; in vitro selection; Mg2+ level not given
In short: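 An in vitro group I ribozyme library with randomized positions was T7-transcribed and gel-purified. In triplicate, 10 pmol RNA in EPPS pH 7.5 was reacted with 50 pmoles of a 30-nt RNA substrate for 1 h at 37 °C across several added MgCl2 levels (1–48 mM), then stopped with EDTA. Products were reverse transcribed from a substrate-complementary primer, PCR-amplified and sequenced (HiSeq 4000). Fitness is a variant's read proportion after selection over that before, normalised to wild type.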

In order of rising reverse-splicing fitness:
1. C82G A111C C150G U176G  0.00449
2. C82G A111C C150G C169G U176C  0.00598
3. C82G A111C C150G C169U U176G  0.00599
4. C82G A111C C150G C169G U176G  0.00603
5. C82G A111C C169A U176G  0.00611
6. C82G A111C C150G C169A U176G  0.00647
7. C82G A111G A120C A145C C150A C169A U176G  0.00653
8. C82G A111C C150G C169G  0.00655
9. C82G A111C A145U C169U U176G  0.00693
10. C82G A111C C169G U176G  0.00724
11. C82G A111C C150G C169G U176A  0.00734
12. C82G A111C C169U U176G  0.00759
13. C82G A111C C150G C169U U176A  0.00763
14. C82G A111C A145U C169G U176G  0.00766
15. C82G A111C A145U C169A U176G  0.00775
16. C82G A111C C150U C169G U176G  0.00784
17. C82G A111C C150A C169G  0.00787
18. C82G A111C C150U C169G  0.00815
19. C82G A111C C150U C169A U176G  0.00817
20. C82G A111G A120C A145C C150A C169A U176C  0.00849
21. C82G A111C C150U C169U U176G  0.00854
22. C82G A111C C169A  0.00871
23. C82G A111C C150G C169A  0.00894
24. C82G A111C C150G C169U  0.00898
25. C82G A111G A120C A145C C150A C169G  0.00899
26. C82G A111C C150A C169A U176G  0.00921
27. C82G A111C C169G  0.00928
28. C82G A111C C150A C169U U176G  0.0093
29. C82G A111C C150A C169G U176G  0.00931
30. C82G A111G A120C A145C C150A C169A  0.00953
31. C82G A111C C150G C169A U176A  0.00955
32. C82G A111C C150G U176A  0.00967
33. C82G A111C A145U C169G  0.0102
34. C82G A111C C150G C169A U176C  0.0108
35. C82G A111C C150A C169A  0.011
36. C82G A111G A120C A145C C150A  0.011
37. C82G A111C C150U C169A  0.0113
38. C82G A111C C150A U176G  0.0116
39. C82G A111C C150A C169U  0.0119
40. C82G A111C C150U C169A U176A  0.0125
41. C82G A111C C150U C169U  0.0125
42. C82G A111C C150G C169U U176C  0.0127
43. C82G A111C A145U C169U  0.0133
44. C82G A111C C150U C169G U176A  0.0133
45. C82G A111C A145U C169G U176A  0.014
46. C82G A111C C150U C169U U176C  0.0142
47. C82G A111C C150U C169A U176C  0.0143
48. C82G A111C C169U  0.0148
49. C82G A111C C150U C169U U176A  0.015
50. C82G A111C A145U C169U U176C  0.0153
51. C82G A111C C169U U176C  0.0154
52. C82G A111C C150A C169A U176C  0.0158
53. C82G A111C C150G U176C  0.0159
54. C82G A111C A145U C169U U176A  0.0168
55. C82G A111C A145U C169G U176C  0.0169
56. C82G A111C C150A C169G U176A  0.0173
57. C82G A111C C150G  0.0174
58. C82G A111C C150U C169G U176C  0.0174
59. C82G A111C C150A C169U U176C  0.0178
60. C82G A111C C169G U176A  0.0182
61. C82G A111C C150A C169A U176A  0.0183
62. C82G A111G A120C A145C C150A C169A U176A  0.0183
63. C82G A111C C150A C169U U176A  0.0193
64. C82G A111C C169U U176A  0.0194
65. C82G A111C C169A U176A  0.0198
66. C82G A111C C150U U176G  0.0217
67. C82G A111C C150A U176A  0.0223
68. C82G A111C C169A U176C  0.023
69. C82G A111C C150A C169G U176C  0.024
70. C82G A111C C150A  0.0254
71. C82G A111C C169G U176C  0.0255
72. C82G A111C C150A U176C  0.0293
73. C82G A111C U176G  0.0517
74. C82G A111C A145U U176G  0.0645
75. C82G A111C C150U U176A  0.0699
76. C82G A111G A120C A145C  0.0798
77. C82G A111C C150U U176C  0.0801
78. C82G A111G A120C  0.0886
79. C82G A111C U176A  0.133
80. C82G A111C A145U U176C  0.136
81. C82G A111C A145U U176A  0.138
82. C82G A111C U176C  0.139
83. C82G A111C C150U  0.143
84. C82G A111G  0.411
